Experimental data reported in patent US20220323599A1, “ANTI-BCMA ANTIBODY CONJUGATE, COMPOSITIONS COMPRISING THE SAME, AND METHODS OF MAKING AND USING THE SAME” (CELGENE CORPORATION, priority 2019, published 2022).

Assays:
[1] = molecular target: human BCMA on cells (endogenous on multiple myeloma cell lines; stably transfected 293T-hBCMA) (human) (UniProt Q02223); assay: cell-based or functional assay
[2] = molecular target: human BCMA on cells (endogenous on multiple myeloma cell lines; stably transfected 293T-hBCMA) (human) (UniProt Q02223); assay: flow cytometry, ARP-1 cells
[3] = molecular target: cynomolgus BCMA on stably transfected 293T cells (cynomolgus monkey); assay: flow cytometry, 293T-cBCMA cells
[4] = molecular target: human BCMA on cells (endogenous on multiple myeloma cell lines; stably transfected 293T-hBCMA) (human) (UniProt Q02223); assay: flow cytometry, 293T-hBCMA cells
[5] = molecular target: Recombinant human BCMA ECD protein (Acro Biosystems) (human) (UniProt Q02223); assay: competition ELISA on coated human BCMA ECD, competitor BAFF at 1 ng/ml, Experiment No. 1
Sequence of Recombinant human BCMA ECD protein (Acro Biosystems) (human) (Q02223 1-54 limits assumed): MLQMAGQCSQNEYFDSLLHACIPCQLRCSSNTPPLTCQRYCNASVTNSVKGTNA

Sequence of human BCMA on cells (endogenous on multiple myeloma cell lines; stably transfected 293T-hBCMA) (human) (Q02223 whole entry, the tested form may be a part): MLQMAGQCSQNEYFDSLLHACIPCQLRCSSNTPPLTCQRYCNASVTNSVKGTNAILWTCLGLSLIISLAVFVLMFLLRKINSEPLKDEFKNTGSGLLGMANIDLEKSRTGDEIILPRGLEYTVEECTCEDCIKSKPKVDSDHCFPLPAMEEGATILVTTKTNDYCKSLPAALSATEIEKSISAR
Sequence of cynomolgus BCMA on stably transfected 293T cells (cynomolgus monkey) (Q02223 other isoform, or with tags, fused parts or gaps): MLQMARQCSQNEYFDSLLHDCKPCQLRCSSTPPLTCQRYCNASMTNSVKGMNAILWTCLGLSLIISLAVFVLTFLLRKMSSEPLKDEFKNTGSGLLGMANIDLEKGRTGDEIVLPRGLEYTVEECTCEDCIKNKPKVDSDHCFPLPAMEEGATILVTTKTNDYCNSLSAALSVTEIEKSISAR

Substance: Conjugate 1: anti-BCMA antibody J6M0 conjugated to maleimido-caproyl monomethyl auristatin F (mc-MMAF), surrogate ADC for GSK2857916
- cell killing EC50, ARP-1 [1]: 0.52 nM
- cell killing EC50, ARP-1, no competing reagent [1]: 0.6 nM
- cell killing EC50, MM.1S [1]: 0.68 nM
- cell killing EC50, NCI-H929 [1]: 0.29 nM
- cell killing EC50, NCI-H929, Experiment 1 [1]: 0.2 nM
- cell killing EC50, NCI-H929, Experiment 2 [1]: 0.2 nM
- cell killing EC50, NCI-H929, no competing reagent [1]: 0.4 nM
- cell killing EC50, OPM2, Experiment 1 [1]: 0.8 nM
- cell killing EC50, OPM2, Experiment 2 [1]: 0.9 nM
- cell killing EC50, OPM2, no competing reagent [1]: 2.3 nM
- cell killing EC50, OPM-2 [1]: 1.4 nM
- cell killing EC50, U266B1 [1]: 0.32 nM
- cell killing EC50, U266B1, Experiment 1 [1]: 0.2 nM
- cell killing EC50, U266B1, Experiment 2 [1]: 0.3 nM
- cell killing EC50, U266B1, no competing reagent [1]: 0.4 nM
- cell killing Span, ARP-1 [1]: 95%
- cell killing Span, ARP-1, no competing reagent [1]: 97%
- cell killing Span, MM.1S [1]: 86%
- cell killing Span, NCI-H929 [1]: 91%
- cell killing Span, NCI-H929, Experiment 1 [1]: 85%
- cell killing Span, NCI-H929, Experiment 2 [1]: 86%
- cell killing Span, NCI-H929, no competing reagent [1]: 86%
- cell killing Span, OPM2, Experiment 1 [1]: 95%
- cell killing Span, OPM2, Experiment 2 [1]: 94%
- cell killing Span, OPM2, no competing reagent [1]: 92%
- cell killing Span, OPM-2 [1]: 93%
- cell killing Span, RPMI-8226 [1]: 40%
- cell killing Span, U266B1 [1]: 90%
- cell killing Span, U266B1, Experiment 1 [1]: 85%
- cell killing Span, U266B1, Experiment 2 [1]: 84%
- cell killing Span, U266B1, no competing reagent [1]: 90%
- Bmax [2]: 45 MFI
- Kd [2]: 2.4 nM
- Bmax [3]: 981 MFI
- Kd [3]: 8.6 nM
- Bmax [4]: 856 MFI
- IC50 [5]: 7 nM
